Key:
[1] = system: TSHR; experiment: Binding of 125I-CGH and 125I-TSH to BHK cells expressing the TSHR; parameters: species or system murine or human; conditions: increasing amounts of unlabeled protein
Procedure: BHK cells expressing murine or human TSHRs were cultured in Dulbecco's Modified Eagle's Medium [DMEM (high glucose)] containing 5% fetal bovine serum, 1% Glutamax, 1% sodium pyruvate, 250 nM methotrexate, and Geneticin ( 1/100). […] Plates of cells were placed on ice and washed twice with 1.0-2.0 ml of ice-cold PBS. […] Specific binding was determined in the presence (nonspecific binding) and absence (total binding) of unlabeled rhCGH (25.0 μg/ml) or TSH (10 μg/ml). Binding reactions were terminated by removing the binding medium and the cell monolayers were washed three times with 1.0-2.0 ml of ice-cold PBS containing 1.0 mg/ml BSA and twice with 1.0-2.0 ml of ice cold albumin-free PBS. Cells were solubilized in 1.0 ml of 1.0N NaOH for 10 min at room temperature and cell-associated radioactivity was determined in a gamma counter. The measured radioactivity was normalized to cell number that was determined on plates of cells cultured in parallel. Binding data were analyzed by non-linear regression using Prizm 3.0 (GraphPad Software, San Diego, Calif.).

[2] = system: differentiated 3T3 L1 adipocytes; experiment: CRE-luciferase reporter assay in differentiated 3T3 L1 adipocytes; type: cell-based, murine
From the text: Differentiated murine 3T3 L1 adipocytes and primary human adipocytes were used to study signal transduction of CGH. 3T3 L1 fibroblasts were differentiated into adipocytes and the cells were transduced with recombinant adenovirus containing a reporter construct, a firefly luciferase gene under the control of cAMP response element (CRE) enhancer sequences. This assay system detects cAMP-mediated gene induction downstream of activation of Gs-coupled G-protein coupled receptors (GPCR's). […] In a separate experiment, undifferentiated 3T3 L1 fibroblasts were transduced with the recombinant adenovirus. […] In another experiment, human primary adipocytes were also transduced with the recombinant adenovirus containing a reporter construct. Treatment of the human adipocytes with isoproterenol produced a 17-fold induction of luciferase expression.
Cells were cultured at 37° C. in an 8% CO2 humidified incubator. Cells were seeded to collagen-coated 96-well plates (Becton Dickinson, cat. #356407) at a density of 5,000 cells per well. […] Luciferase activity was measured on a microplate luminometer (PerkinElmer Life Sciences, Inc., model LB 96V2R) following automated injection of 40 μl of luciferase assay substrate into each well. […]

[3] = system: LPS-induced mild endotoxemia mouse model; experiment: LPS-induced mild endotoxemia mouse model, serum cytokines; type: in vivo, mice
Procedure: An in vivo experiment was designed to examine the effect of CGH in a mouse model of LPS-induced mild endotoxemia. This model mimics acute endotoxemia/sepsis by challenging mice with a low, non-lethal dose of bacterial endotoxin (lipopolysaccharide, LPS). Serum is collected at various timepoints (1-8 hours) after intraperitoneal LPS injection and analyzed for altered expression of a wide variety of pro- and anti-inflammatory cytokines and acute phase proteins that mediate the inflammatory response. The model provides a means to assess the potential anti-inflammatory effects of therapeutic candidates during a robust inflammatory response. To initially assess the model, we measured proinflammatory cytokines in a pilot experiment to collect reference data for the model.
C57B1/6 mice (Charles River Laboratories; 5 mice/group) were treated i.p. with PBS, 0.2 mg/kg CGH in PBS, or 2 mg/kg CGH in PBS 1 hour prior to LPS challenge. The mice were then challenged with 25 ug of LPS i.p. and bled at 1 hour and 4 hours after LPS injection. Serum was analyzed for TNF[…] (1 hour) and IL-6 (4 hours) levels by ELISA.
To determine if CGH would potentiate the effect of a sub-maximal dose of glucocorticoid, groups of 10 C57B1/6 mice each were treated i.p. with PBS, 0.15 or 1.5 mg/kg Dex, 2 mg/kg CGH, or a combination of CGH and low or high doses of Dex, 1 hour prior to injection of 25 ug LPS i.p. As shown in TABLE 3 (Expt #2), either 2 mg/kg CGH or 1.5 mg/kg Dex treatment alone (1 hour prior to LPS) caused a significant drop in serum TNFα levels at 1 hour, as observed in previous experiments. The effects of CGH administered in conjunction with Dex on inhibition of TNFα production were greater than either dose of Dex alone.

[4] = Expt 1, 0.2 mg/kg CGH i.p. 1 hr prior to LPS
[5] = Expt 1, 2 mg/kg CGH i.p. 1 hr prior to LPS

B1: CGH: heterodimeric protein hormone comprised of alpha subunit GPHA2 and beta subunit GPHB5, recombinantly produced in CHO cells (protein)
chain 1: QEAVIPGCHLHPFNVTVRSDRQGTCQGSHVAQACVGHCESSAFPSRYSVLVASGYRHNITSVSQCCTISGLKKVKVQLQCVGSRREELEIFTARACQCDMCRLSRY
chain 2: ASSGNLRTFVGCAVREFTFLAKKPGCRGLRITTDACWGRCETWEKPILEPPYIEAHHRVCTYNETKQVTVKLPNCAPGVDPFYTYPVAIRCDCGACSTATTECETI
For B1, the “reduction of the amount of 125I-CGH bound by unlabeled competitor” value [1] was “reduced the amount of ^125I-CGH bound”, the “induction of luciferase expression” value [2] was 27 fold and the “reduction of TNFα induction” value ([3]; 2 mg/kg CGH, 1 hour time point, Expt 1) was “about 60%”. For the same molecule, the “increase of serum IL-6 levels” value ([3]; 2 mg/kg CGH, 4 hour time point, Expt 1) was “about 70%”, the “IL-6, 4 hours” value [3, 4] was 49.7 ± 3.1 ng/mL and the “TNFα, 1 hour” value [3, 4] was 3916 ± 1057 pg/mL. The “IL-6, 4 hours” value [3, 5] was 71.1 ± 12.9 ng/mL, the “TNFα, 1 hour” value [3, 5] was 2290 ± 530 pg/mL and the “IL-6, 4 hours” value ([3]; Expt 2, 2 mg/kg CGH) was 57.1 ± 16.2 ng/mL. The “TNFα, 1 hour” value ([3]; Expt 2, 2 mg/kg CGH) was 2274 ± 524 pg/mL.

Source: patent US20070014736A1, “Methods of delivering corticotroph-derived glycoprotein hormone” (priority 2005, published 2007)
